Legend:
[1] = target: T1, human ROR2 over-expressed on CHO cells (CHO-human ROR2) (human, UniProt Q01974 34-943); assay: flow cytometry, CHO-human ROR2 cells
T1 construct: whole, on cells; Negative control; also called family protein human ROR2
Description: (§1) For this experiment, using cell lines (FIG. 5 and FIG. 7, respectively) transiently (CHO-human ROR1, CHO-human ROR2, CHO-mouse ROR1) or stably (MC38-human ROR1) transfected with ROR1 gene to achieve artificial over-expression of ROR1 protein, an ROR1-expressing cell line (JeKo-1, Mino) (FIG. 6), a non ROR1-expressing cell line (MCF7) (FIG. 6) and a FACSCalibur (BD Biosciences) device was used to measure the degree to which anti-ROR1 antibody and ROR1 were bound, as follows. […] JeKo-1, Mino, CHO-human ROR1, CHO-mouse ROR1 and MC38-human ROR1 are all cell lines which express human ROR1 or mouse ROR1.
Specifically, after dissociating each cell line and washing in PBS, the number of cells was counted and adjusted to 2×10⁵ cells/200 PBS. Then the respective ROR1 monoclonal antibodies prepared in Embodiment 3 were diluted 5 times from 10 /mL or 10 /mL, then reacted for 1 hour at 4° C. […] After reacting the cells were washed in PBS and analyzed using a FACSCalibur device. […] The shifted readings for the respective experimental groups treated with ROR1 monoclonal antibody were compared against the shifted reading for the control group (MFI Ratio: MFI of anti-ROR1/MFI of 2nd Ab).

[2] = target: T2, mouse ROR1 over-expressed on CHO cells (CHO-mouse ROR1) (mouse, UniProt Q9Z139 30-937); assay: flow cytometry, CHO-mouse ROR1 cells
T2 construct: whole, on cells; also called cell surface-expressed mouse ROR1
T2 sequence (Q9Z139 30-937): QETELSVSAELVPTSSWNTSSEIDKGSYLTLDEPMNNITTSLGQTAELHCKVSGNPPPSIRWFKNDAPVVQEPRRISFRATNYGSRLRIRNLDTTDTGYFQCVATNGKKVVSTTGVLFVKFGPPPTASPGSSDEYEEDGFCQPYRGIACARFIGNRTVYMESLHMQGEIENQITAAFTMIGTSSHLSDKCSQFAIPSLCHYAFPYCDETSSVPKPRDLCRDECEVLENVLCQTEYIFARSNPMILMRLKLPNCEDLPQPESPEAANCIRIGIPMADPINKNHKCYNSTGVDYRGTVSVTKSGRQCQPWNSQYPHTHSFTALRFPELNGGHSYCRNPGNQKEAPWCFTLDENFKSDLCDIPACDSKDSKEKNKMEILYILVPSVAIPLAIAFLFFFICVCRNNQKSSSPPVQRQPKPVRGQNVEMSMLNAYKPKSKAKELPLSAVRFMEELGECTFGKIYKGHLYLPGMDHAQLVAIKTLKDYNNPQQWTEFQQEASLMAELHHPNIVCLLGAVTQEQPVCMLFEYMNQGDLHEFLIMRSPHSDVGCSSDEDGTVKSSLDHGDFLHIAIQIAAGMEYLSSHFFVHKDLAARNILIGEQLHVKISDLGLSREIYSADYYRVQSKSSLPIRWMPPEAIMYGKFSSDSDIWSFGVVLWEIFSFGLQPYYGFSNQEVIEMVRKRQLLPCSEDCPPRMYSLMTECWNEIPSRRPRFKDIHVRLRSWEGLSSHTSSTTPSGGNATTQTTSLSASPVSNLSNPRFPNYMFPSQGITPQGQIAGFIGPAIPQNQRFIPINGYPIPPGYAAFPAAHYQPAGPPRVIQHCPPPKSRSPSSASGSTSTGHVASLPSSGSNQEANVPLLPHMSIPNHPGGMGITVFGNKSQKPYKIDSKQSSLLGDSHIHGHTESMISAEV
Description: as §1
Specifically, after dissociating each cell line and washing in PBS, the number of cells was counted and adjusted to 2×10⁵ cells/200 PBS. Then the respective ROR1 monoclonal antibodies prepared in Embodiment 3 were diluted 5 times from 10 /mL or 10 /mL, then reacted for 1 hour at 4° C. After the reaction, the cells were washed in PBS, then FITC-marked constant region (Fc) specific antibody (Goat anti-human IgG FITC conjugate, Fc specific, Sigma, F9512, concentration 20 mg/ml) was suspended in 2 /1×10⁵ cells/200 PBS and reacted for 1 hour at 4° C. As for identification of the degree of expression of the transiently over-expressed human ROR1, human ROR2 and mouse ROR1, a commercially available FACS analysis antibody (anti-ROR1: R&D Systems, FAB 2000G, anti-ROR2: R&D, FAB20641P) was used. After reacting the cells were washed in PBS and analyzed using a FACSCalibur device. The negative control (2nd Ab) was only treated with FITC-marked constant region (Fc) specific antibody. The shifted readings for the respective experimental groups treated with ROR1 monoclonal antibody were compared against the shifted reading for the control group (MFI Ratio: MFI of anti-ROR1/MFI of 2nd Ab).

[3] = target: T3, recombinant human ROR1-His (Sino Biological, 13968-H08H) (human, UniProt Q01973 30-406); assay: BLI (Octet), ROR1-His on Anti-Penta-His or AR2G biosensor, IgG 30 to 0.021 nM, 1:1 fit
T3 construct: extracellular domain; Bought protein; also called ROR1-HIS protein; not shown: His tag
T3 sequence (Q01973 30-406): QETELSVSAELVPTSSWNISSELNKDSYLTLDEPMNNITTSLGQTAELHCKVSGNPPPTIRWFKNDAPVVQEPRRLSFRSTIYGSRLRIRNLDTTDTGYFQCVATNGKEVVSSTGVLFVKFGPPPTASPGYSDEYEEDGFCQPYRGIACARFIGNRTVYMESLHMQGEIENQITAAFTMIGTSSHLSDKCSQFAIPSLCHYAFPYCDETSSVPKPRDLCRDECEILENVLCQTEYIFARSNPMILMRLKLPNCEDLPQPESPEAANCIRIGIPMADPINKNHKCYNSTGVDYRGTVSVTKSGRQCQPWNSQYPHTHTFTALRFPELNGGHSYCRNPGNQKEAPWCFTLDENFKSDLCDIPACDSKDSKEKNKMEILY
Description: A 96-well black microplate (greiner bio one) was mounted on a biosensor tray case, and 200 10×KB or DW was added to each of 8 wells. Then Anti Penta His biosensors or 8 AR2G biosensors (ForteBio, USA) were inserted to hydrate for 10 minutes. 600 of the assay samples were diluted 2-fold or 3-fold to the appropriate assay concentrations, using 1×KB or 10×KB to 30 to 0.021 nM. To immobilize the antigen, recombinant human ROR1-His (Sino Biological, 13968-H08H) was diluted to 1 /ML with 10×KB or Sodium Acetate pH5 buffer. Immobilization was fixed at a threshold of 0.3 nm in the loading step. The association assay was carried out for 3 to 10 minutes, and the dissociation assay was carried out for 20 minutes. According to the Octet program template, the buffer was placed in a new 96-well black microplate according to order. As Baseline1, 200 10×KB or DW was placed. Then 200 each of 1 /mL of the antigen to be loaded, the ROR1-HIS protein, was added. As Baseline2, 200 10×KB or 1×KB was placed. Then to each well 30 to 0.021 nM of the diluted antibody and 200 each of 10×KB buffer or 1×KB corresponding to a reference blank was added. The temperature of the test plate was fixed at 30° C. After all of the samples were introduced, the equipment was started, and after the assay was completed, results were uploaded to the Octet Analysis 90 software, with KD values analyzed through 1:1 fitting. By obtaining KD values through the Octet assay method, it was confirmed that the anti-ROR1 antibody had strong binding potential to ROR1 antigen.

[4] = target: T4, recombinant mouse ROR1 protein (Acrobiosystems, RO1-M5221) (mouse, UniProt Q9Z139 30-403); assay: ELISA, wells coated with recombinant mouse ROR1 protein, IgG titrated, HRP anti-Fab detection, OD (450-650nm)
T4 construct: Bought protein; also called mouse ROR1 antigen
T4 sequence (Q9Z139 30-403 limits assumed): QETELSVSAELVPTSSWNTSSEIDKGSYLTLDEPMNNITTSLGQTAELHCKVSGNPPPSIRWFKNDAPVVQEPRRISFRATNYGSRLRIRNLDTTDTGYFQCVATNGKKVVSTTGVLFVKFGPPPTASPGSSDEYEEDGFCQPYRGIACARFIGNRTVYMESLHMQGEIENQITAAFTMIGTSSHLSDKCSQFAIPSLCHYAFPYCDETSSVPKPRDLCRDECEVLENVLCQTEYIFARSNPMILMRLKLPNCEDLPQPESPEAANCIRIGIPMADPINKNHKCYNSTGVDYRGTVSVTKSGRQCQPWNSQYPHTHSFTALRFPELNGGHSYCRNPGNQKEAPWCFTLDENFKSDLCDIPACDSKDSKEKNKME
Description: (§2) Anti-ROR1 antibody antigen binding affinity was assessed using an ELISA-based solution binding assay. Specifically, a 96-well microtiter plate (Nunc-Immuno Plates), NUNC) was coated for 16 hours at 4° C. with the ROR1 protein described below at a concentration of 1 in PBS solution, and non-specific binding sites were blocked for 2 hours with 3% BSA (bovine serum albumin). Here, the ROR1 protein used was, in the case of human ROR1, the ROR1-Fc or recombinant human ROR1-His (Sino Biological, 13968-H08H) of Embodiment 1. The ROR1-His used in ELISA, as stated in the above sentence, was a protein from the Sino Biological company (13968-H08H), and the ROR1-His of Embodiment 1 or recombinant mouse ROR1 protein was used (Acrobiosystems, RO1-M5221-100 )
(§3) Subsequently, the anti-ROR1 antibodies prepared in Embodiment 3 were added at the concentrations stated in FIG. 2 to a 96-well microtiter plate, and binding capacity was analyzed using ELISA as follows. Specifically, after incubating for 2 hours, the plate was washed 5 times with PBS containing 0.05% Tween 20, then HRP-conjugated Fab multiclonal antibody reagent (Perce, 31414) was diluted to 1:10,000 and placed in the washed microtiter plate. After reacting for 1 hour at 37° C., the ROR1 antibodies bonded to the plate were detected. After the reaction, color development was performed using TMB (Tetramethylbenzidine, Sigma, T0440). The enzymatic reaction was stopped using 0.5 mol/L sulfuric acid, and absorbance at 450 nm and 650 nm was measured (450 nm-650 nm) using a micro plate reader (Molecular Device)

[5] = target: T3, recombinant human ROR1-His (Sino …); assay: ELISA, wells coated with human ROR1 protein (sheet: 'human ROR1'; text: ROR1-Fc or ROR1-His), IgG titrated, HRP anti-Fab detection, OD (450-650nm)
Description: as §2, §3

T1 sequence (Q01974 34-943): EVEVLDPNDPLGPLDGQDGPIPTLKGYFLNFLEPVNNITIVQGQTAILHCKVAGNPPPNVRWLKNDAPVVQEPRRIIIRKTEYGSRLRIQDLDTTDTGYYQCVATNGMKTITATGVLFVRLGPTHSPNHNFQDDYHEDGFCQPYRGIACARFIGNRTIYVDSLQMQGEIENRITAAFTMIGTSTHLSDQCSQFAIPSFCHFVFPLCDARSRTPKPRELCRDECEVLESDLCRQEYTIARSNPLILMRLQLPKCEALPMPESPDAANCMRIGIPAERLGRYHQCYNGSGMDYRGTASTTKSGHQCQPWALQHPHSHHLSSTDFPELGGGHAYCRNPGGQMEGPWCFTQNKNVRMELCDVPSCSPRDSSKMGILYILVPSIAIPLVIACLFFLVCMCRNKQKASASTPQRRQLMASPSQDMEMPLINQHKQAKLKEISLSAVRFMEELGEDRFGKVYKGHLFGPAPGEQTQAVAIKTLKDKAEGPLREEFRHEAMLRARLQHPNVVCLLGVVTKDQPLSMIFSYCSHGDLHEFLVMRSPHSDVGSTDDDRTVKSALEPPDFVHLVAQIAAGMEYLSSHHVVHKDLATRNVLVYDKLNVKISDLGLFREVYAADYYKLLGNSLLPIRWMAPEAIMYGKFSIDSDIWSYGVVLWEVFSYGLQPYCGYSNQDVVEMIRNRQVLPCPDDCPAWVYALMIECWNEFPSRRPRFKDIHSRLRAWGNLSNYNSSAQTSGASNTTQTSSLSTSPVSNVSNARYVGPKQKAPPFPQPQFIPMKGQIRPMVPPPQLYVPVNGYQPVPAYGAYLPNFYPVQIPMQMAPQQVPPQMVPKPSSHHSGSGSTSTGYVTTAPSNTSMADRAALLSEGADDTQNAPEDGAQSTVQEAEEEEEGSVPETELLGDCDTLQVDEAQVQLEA

binding result [1]: no binding | binding result [2]: binds | Kd [3]: 0.754 nM | koff [3]: 0.000551 s⁻¹ | kon [3]: 731000 M⁻¹ s⁻¹ | binding result [4]: binds | EC50 (read off the curve) [5]: ~0.3 nM
B1: anti-ROR1 IgG antibody CC9 (antibody, V domains shown)
VH: EVQLLESGGGLVQPGGSLRLSCAASGFTFSSYDMSWVRQAPGKGLEWVSGISHGSGNKYYADSVKGRFTISRDNSKNTLYLQMNSLRAEDTAVYYCAKRLSLRRRPSYYSDNAMDVWGQGTLVTVSS
VL: QSVLTQPPSASGTPGQRVTISCTGSSSNIGNNAVNWYQQLPGTAPKLLIYYDSNRPSGVPDRFSGSKSGTSASLAISGLRSEDEADYYCGAWDDSLSGYVFGGGTKLTVLG
notes: Full IgG form (human IgG1 constant region, lambda light chain), expressed in CHO-S cells
